Legend:
[1] = target: aεFab^1–IgE-Fc complex (one aεFab bound to IgE-Fc) (UniProt P01854); experiment: SPR
[2] = target: Fcε3-4 sub-fragment of IgE-Fc (human); experiment: ITC

B1: anti-ε-chain Fab (aεFab), anti-human IgE-Fc antibody in human IgG1 Fab format (Fab, V domains shown)
VH: QVQLQQSGPGLVKPSQTLSLTCGISGDSVSSNSAAWNWLRQSPSRGLEWLGRTYYRSKWYNDYAVSMKSRITINPDTSRNQFSLQLNSVTPEDTAVYYCARDGEISYDYYYYGMDVWGRGTLVTVSS
VL: QSVLTQPPSASGTPGQRVTISCSGSSSNIGNNGVNWYQQVPGKPPKLLIYYDDLLPSGVSDRFSGSKSGTSASLAISGLQSEDEADYYCEAWDDSLDGVVFGGGTKLTVL
Work on B1 yielded a Kd [1] of 1400 nM and a Kd2 (second site, sequential two-site fit) [2] of 0.98 µM.
